The nature of the data set: yeast display, Sf9 membrane polyspecificity reagent, FACS + sequencing; frameworks hold sequencing errors. In a few lines: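 Sorting gates, low and high (top ~1%), were placed on anti-HA fluorescence to track expression and on streptavidin fluorescence to track reagent binding. A clone's polyreactivity label is taken from the gate it came out of. The reagent was 10% biotinylated, detergent-solubilized Sf9 membrane, applied for 1 hour at 4 °C to galactose-induced yeast display cells.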
“QVQLVESGGGLVQAGGSLRLSCAASGRIYLKYTMGWYRQAPGKEREMVAAISRGGSTYYADSVKGRFTISRDNAKNTVYLQMNSLKPEDTAVYYCAATSYRRTGYNYWGQGTQVTVSS”: the “polyreactivity (PSR sort gate)” value is “high polyreactivity”.
Consider “QVQLVESGGGLVQAGGSLRLSCAASGRIYRYAIGWYRQAPGKERELVASISYSGGSTYYADSVNGRFTISRDNAKNTVYLQMNSLKPEDTAVYYCAARTRHVHYGDWGQGTQVTVSS”, for which the “polyreactivity (PSR sort gate)” value is “high polyreactivity”.
In the case of “QVQLVESGGGLVQAGGSLRLSCAASGRIYSRYAMGWYRQAPGKERELVAAISASGGSTYYADSVKGRFTISRDNAKNTVYLQMNSLKPEDTAVYYCNAYQTSTPLFPGYGYWGQGTQVTVSS”, the “polyreactivity (PSR sort gate)” value is “low polyreactivity”.
The entry for “QVQLVESGGGLVQAGGSLRLSCAASGRIYSYYARGWYRPAPGKERELVAAISRTGGTTYYADSVKGRFTISRDNAKNTVYLQMNSLKPEDTAVYYCAASGGYRPHRYQIGDYDYWGQGTQVTVSS” is “high polyreactivity”.
“QVQLVESGGGLVQAGGSLRLSCAASGRIYVTNAMGWYRQAPGKERELVASISSGGRTHYADSVKGRFTISRDNAKNTVYLQMNSLKPEDTAVYYCAKPPLYYYPDLRGEEFYYWGQGTQVTVSS”: the “polyreactivity (PSR sort gate)” value was “low polyreactivity”.
The entry for “QVQLVESGGGLVQAGGSLRLSCAASGRIYYPYAMGWYRQAPGKERELVASINYRGGSTYYADSVKGRFTISRDNAKNTVYLQMNSLKPEDTAVYYCAARFYWKYWRYDYWGQGTQVTVSS” is “high polyreactivity”; for “QVQLVESGGGLVQAGGSLRLSCAASGRLCGIYTMGWYRQAPGKERELVAAISKRGSSTSYADSVKGRFTISRDNAKNTVYLQMNSQKPEDTAVYYCAARYGYSYRYSGFDYWGQGTQVTVSS” it is “high polyreactivity”; for “QVQLVESGGGLVQAGGSLRLSCAASGRLFHPYAMGWYRQAPGKERELVARITTSGGSTSYADSVKGRFTISRDNAKNTVYLQMNSLKPEDTAVYYSAADRARYYSEYDYWGQGTQVTVSS” it is “low polyreactivity”.
Regarding “QVQLVESGGGLVQAGGSLRLSCAASGRLFKSYAMGWYRQAPGKERELVAAIRSGGSTYYADSVKGRFTISRDNAKNTVYLQMISLKPEDTAVYYCNRVTRTWTVTYHYWGQGTQVTVSS”, the “polyreactivity (PSR sort gate)” value was “high polyreactivity”.
With “QVQLVESGGGLVQAGGSLRLSCAASGRLFYLNAMGWYRQAPGKERDLVAAISGSTGSTYYADSVKGRITISRDNAMNPVYLHMTSLKPVDTAVYYSNAGGVYVEFNYWGQGTQVTVSS”, the “polyreactivity (PSR sort gate)” value is “low polyreactivity”.
Under “QVQLVESGGGLVQAGGSLRLSCAASGRMFTHNVMGWYRQAPGKERELVAAISASGGSTYYADSVKGRFTISRDNAKNTVYLQMNSLKPEDTAVYYCNAGDYRTFYRRFDYWGQGTQVTVSS” stands “low polyreactivity”; under “QVQLVESGGGLVQAGGSLRLSCAASGRMIKYNTMGWYRQAPGKERELVAAISLSSGSGGGTRYADSVKGRFKISRDNAKNTVYLQMNSLKPEDTAVYYCAARHRYTNEYDYWGQGTQVTVSS”, “low polyreactivity”; under “QVQLVESGGGLVQAGGSLRLSCAASGRNFDGYAMGWYRQAPGKERQLVAAISGGGNTKYADSVKGRFTISRDNAKNTVYLKMISLKPEDTAVYYCAARGYYYGYRFDSWGQGTQVTVSS”, “high polyreactivity”.
As to “QVQLVESGGGLVQAGGSLRLSCAASGRNFGAYAMGWYRPAPGKERELVAAITTAGSTHYADSVKGRFTISRDNAKNTVYLQMKSLKPQDTAVYYCAADGIARSYVLFDAYDFLYDYWGQGTQVTVSS”, the “polyreactivity (PSR sort gate)” value is on record as “low polyreactivity”.
Under “QVQLVESGGGLVQAGGSLRLSCAASGRNFGSYAMGWSRQAPGKERELVAGIRSVGSTNYADSVKGRFTISRDNAKNTVYLQMNSLKPEDTAVYYCAARLWHLSYAGQGGDYWGQGTQVTVSS” stands “low polyreactivity”; under “QVQLVESGGGLVQAGGSLRLSCAASGRNFHNYAMGWYRQATRKERELVAGISSRGGSTYYADSVKGRFTISRVNAKNTVYLQMNSLKPEVTAVYYCAKDKSPYGYATNQYRKYYYWGQGTQVTVSS”, “low polyreactivity”.
Turning to “QVQLVESGGGLVQAGGSLRLSCAASGRNFKQYAMGWYRQAHGKERELVAAISVRGGITYYADSVKGRFTISRDNAKNTVYLQMNSLKPEVTGVYYCAKRSYRTHTYDYWGQGTQVTVSS”, the “polyreactivity (PSR sort gate)” value is “low polyreactivity”.
The entry for “QVQLVESGGGLVQAGGSLRLSCAASGRNFLYNAMGWYRQAPGKERELVAAISGGSTNYADSVKGRFTISRDNAKNTVYLQMHSLKPEDTAVYYCAARYLRRYNWGQGTQVSVSS” is “high polyreactivity”; for “QVQLVESGGGLVQAGGSLRLSCAASGRNFNQYGMGRYIPAPGKERELVAAIRSGDSTNYADSVKGRFTISRDNAKNTVYLQMNSLKPEDTAVYYCARDRPGDYAGYDYWGQGTQVNVSS” it is “low polyreactivity”; for “QVQLVESGGGLVQAGGSLRLSCAASGRNFNSYAMGWYRQAPGKERELVAAISWNGGSTYYADSVKGRFTISRDNAKITVYLQMNSLKPEDTAVYYCAATYLLRGDAYYSWGQGTQVTVSS” it is “high polyreactivity”.
Regarding “QVQLVESGGGLVQAGGSLRLSCAASGRNFPAYAMGWYRQAPGKERELVASIRRGGITYADSVKGRFTISRDNAKNTVYLQMNRLKPEDSSGYFCNADFRGWGYHMDYWGQGTQVTVSS”, the “polyreactivity (PSR sort gate)” value is “low polyreactivity”.
The entry for “QVQLVESGGGLVQAGGSLRLSCAASGRNFPYYAMGWYRQAPGKEMELVAAITRGVRTHYADSVKGRFTISRDNAKNTVYLQMNSLKPEDTAVYYCAREDWGSYSDMDSWGQGTQVTVSS” is “low polyreactivity”; for “QVQLVESGGGLVQAGGSLRLSCAASGRNFPYYAMGWYRQAPGKERELVATISSGGITNYADSVKGRFTISRDNAKNTVYLELNSLKPEDTAVYYCAADRHWSAGLWRYDYWGQGTQVTVSS” it is “high polyreactivity”; for “QVQLVESGGGLVQAGGSLRLSCAASGRNFQVYAMGWYRQAPGKERELVAAISFSGDRTYYADSVKGRFTISRDNAKNTVYLQMNSLKPEDTAVYYCSADGFVYDLRARPGWVDYWGQGTQVTVSS” it is “low polyreactivity”.
For “QVQLVESGGGLVQAGGSLRLSCAASGRNFRSYAMGWYRQAPGKERELVAAIRRGGSTNYADSVKGRFTISRDNAKNTVYLQMNSLNPEDTAVYYCAARGWSYRSVGYMDYWGQGTQVTVSS”, the “polyreactivity (PSR sort gate)” value was “high polyreactivity”.
As for “QVQLVESGGGLVQAGGSLRLSCAASGRNFSDYAMGWSRQAPGKERELVATITSGDSTNYADSVKGRFTISRDNAKNTVYLQMNSLKPEDTAVYYCNADRFADYDYWGQGTQVTVSS”, the “polyreactivity (PSR sort gate)” value is on record as “low polyreactivity”.
As to “QVQLVESGGGLVQAGGSLRLSCAASGRNFSLYAMGWYRQAPGKERELVAAISWSGGNTYYADSVKGRFTISRDNAKNTVYLQMNSLKPEDTAVYYCNTVSYRGDWNPSKYYYWGQGTQVTLSS”, the “polyreactivity (PSR sort gate)” value was “high polyreactivity”.
As to “QVQLVESGGGLVQAGGSLRLSCAASGRNFSWNAMGWYRQAPGKERELVAAISRGASTNYADSVKGRFTISRDNAKNTDYLQMNSLKPEDTAVYYCNAVGPSLIYTYELSPTFDYWGQGTQVTVSS”, the “polyreactivity (PSR sort gate)” value is on record as “low polyreactivity”.
For “QVQLVESGGGLVQAGGSLRLSCAASGRNFTSNTMGWYRQAPGTETELVAAITSSGGSMYYADSVKGRFTISRDNAKNTVYLQMNSLKPEDTAVYYCAADTIGYHYWYDYWGQGTQVTVSS”, the “polyreactivity (PSR sort gate)” value is given as “low polyreactivity”.
Under “QVQLVESGGGLVQAGGSLRLSCAASGRNFWDYAMGWYRQAPGKERELVAGISYSGGSTSYADSVKGRFTISRDNAKNTVYLQMNSLKPEDTAVYYCAAGPSGTFFRDYDYWGQGTQVTVSS” stands “low polyreactivity”; under “QVQLVESGGGLVQAGGSLRLSCAASGRNFYAYAMGWYRQAPGKERELVAGITYSGSSTYYADSVKGRFTISRDNAKNTVYLQMNSLKPEDTAVYYCAADLTRVLRYNYWGQGTQVTVSS”, “low polyreactivity”.
“QVQLVESGGGLVQAGGSLRLSCAASGRNFYQYGMGWYREAPGKERELVAAISDSGGGTYYADSVKGRFTISGDNAKNTVYLQMNSLKPEDSAVYYCAATYVGPRRRYYYWGQGTQVTVSS”: the “polyreactivity (PSR sort gate)” value is “high polyreactivity”.
Turning to “QVQLVESGGGLVQAGGSLRLSCAASGRNISYNAMGWSRQAPGKERELVAAISWGGGSTYYADSVKGRFTISRDNAKNTVYLQMNSLKPEDTAVYYCAKGWYRIKRNDYWGQGTQVTVSS”, the “polyreactivity (PSR sort gate)” value is listed as “low polyreactivity”.
As for “QVQLVESGGGLVQAGGSLRLSCAASGRNLGYNAMGWYRQAPGKERELVAAISWSGGSTYYADSVKGRFTISRDNAKNTVYLQMNSLKPEDTAVYYCAARNNRYPLYNYWGQGTQVTVSS”, the “polyreactivity (PSR sort gate)” value was “low polyreactivity”.
The entry for “QVQLVESGGGLVQAGGSLRLSCAASGRNPMGWYRQAPGKDRELVASISRTGGSTYYADSVKGRFTISRDNAKNTDYLQMNSLKPEDTAVYYCNYFRRPPMYYWGQGTQVTVSS” is “high polyreactivity”; for “QVQLVESGGGLVQAGGSLRLSCAASGRPFDFYAMGLYRQAPGKERELVADISTGGSTYYADSVKGRFTISRDNAKNTVYLQMNSLKPEDTAVYYCAAVGQDYYKVRYYYWGQGTQVTVSS” it is “low polyreactivity”; for “QVQLVESGGGLVQAGGSLRLSCAASGRPFHRNAMGWYRPAPGKERELVAAITGDGRTNYADSVKGRFTLSRDNAKNTVYLQMNSLKPEDTAFYYCAAEAVWFVGQAFDISDSTTYGFWGQGTQVTVSS” it is “low polyreactivity”.
The entry for “QVQLVESGGGLVQAGGSLRLSCAASGRPFSGYAMGWYRQAPGKERELVAAITSSGSSTYYADSVKGRFTISRDNAKNTVYLQMNSLKPEDTAVFYCAATPQAHSERYYYQRKYDYWGQGTQVTVSS” is “low polyreactivity”; for “QVQLVESGGGLVQAGGSLRLSCAASGRPFTWYALGWYRQAPGKEREVVAAISKSGGSTYYADSVKGRFTISRDNAKNTVYLQMNSLKPEDTAVYYCNADFYGYFLGYGYCGQGTQVTVSS” it is “low polyreactivity”; for “QVQLVESGGGLVQAGGSLRLSCAASGRSFSRNAMGWYRQAPGTERELVAGISSGGSTNYADSVKGRFTISPDTAKNTVYIQMNSLKPEDTAVYYCAKDSAEFVTRYDYWGQGTQVTLSS” it is “low polyreactivity”.
The entry for “QVQLVESGGGLVQAGGSLRLSCAASGRSFYGYAMGWYRQAPGKERELVARISGGGRTYYADSVKGRFTISRDNAKNTVYLQMNSLNPEDTAVYYCAAVYRSTWYGFTGSVGTFDYWGQGTQVTVSS” is “high polyreactivity”.
